From publication PMC4882601, “Binding of Human Fibrinogen to MRP Enhances Streptococcus suis Survival in Host Blood in a αXβ2 Integrin-dependent Manner” (Scientific Reports, 2016)

Tests used:
[1] = target: T1, human fibrinogen (human, UniProt P02671-2 20-644; P02675 31-491; P02679-2 27-437, biotin on hFg (which chain is not told) in the ELISA with immobilised MRP); experiment: BLI; biotinylated MRP-N proteins immobilised on streptavidin biosensors, hFg, Fg-D or Fg-E as analyte, PBST, 1:1 binding model; conditions: both partners purified
T1 construct: Fibrinogen Aα chain, human (63.5 kDa band); Fibrinogen Bβ chain, human (56 kDa band); Fibrinogen γ chain, human (47 kDa band); Three pairs of Aα, Bβ and γ chains; also called hFg; Fg; source: bought: Merck; copies: 2 + 2 + 2
T1 sequence (looked up) 1: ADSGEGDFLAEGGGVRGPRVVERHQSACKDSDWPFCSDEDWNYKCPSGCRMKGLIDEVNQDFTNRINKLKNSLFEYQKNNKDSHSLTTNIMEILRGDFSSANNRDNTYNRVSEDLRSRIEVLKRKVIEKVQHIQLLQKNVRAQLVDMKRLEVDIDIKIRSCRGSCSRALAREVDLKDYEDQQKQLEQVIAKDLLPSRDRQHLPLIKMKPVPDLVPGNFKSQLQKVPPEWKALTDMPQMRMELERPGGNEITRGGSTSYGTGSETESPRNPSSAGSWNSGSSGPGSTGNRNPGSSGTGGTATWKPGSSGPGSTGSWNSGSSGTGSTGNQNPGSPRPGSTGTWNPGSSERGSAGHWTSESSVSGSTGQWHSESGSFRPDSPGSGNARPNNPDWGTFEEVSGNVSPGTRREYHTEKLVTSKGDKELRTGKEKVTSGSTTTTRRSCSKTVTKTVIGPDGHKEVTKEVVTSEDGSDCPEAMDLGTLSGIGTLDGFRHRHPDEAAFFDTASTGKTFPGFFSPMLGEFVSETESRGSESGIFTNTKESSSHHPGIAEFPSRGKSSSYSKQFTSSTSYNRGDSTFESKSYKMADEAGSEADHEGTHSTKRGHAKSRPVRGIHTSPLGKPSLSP
T1 sequence (looked up) 2: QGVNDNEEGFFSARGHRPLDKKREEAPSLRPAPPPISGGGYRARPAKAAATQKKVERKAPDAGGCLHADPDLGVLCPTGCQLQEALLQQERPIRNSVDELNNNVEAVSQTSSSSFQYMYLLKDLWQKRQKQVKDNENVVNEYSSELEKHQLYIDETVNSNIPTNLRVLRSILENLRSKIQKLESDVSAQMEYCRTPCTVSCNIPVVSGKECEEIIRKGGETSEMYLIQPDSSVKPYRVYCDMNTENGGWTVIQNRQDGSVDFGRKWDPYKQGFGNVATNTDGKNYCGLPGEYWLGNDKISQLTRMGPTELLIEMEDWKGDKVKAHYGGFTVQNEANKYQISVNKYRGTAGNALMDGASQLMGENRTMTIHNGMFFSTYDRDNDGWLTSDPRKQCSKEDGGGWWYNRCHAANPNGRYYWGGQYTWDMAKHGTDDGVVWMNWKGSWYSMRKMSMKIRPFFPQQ
T1 sequence (looked up) 3: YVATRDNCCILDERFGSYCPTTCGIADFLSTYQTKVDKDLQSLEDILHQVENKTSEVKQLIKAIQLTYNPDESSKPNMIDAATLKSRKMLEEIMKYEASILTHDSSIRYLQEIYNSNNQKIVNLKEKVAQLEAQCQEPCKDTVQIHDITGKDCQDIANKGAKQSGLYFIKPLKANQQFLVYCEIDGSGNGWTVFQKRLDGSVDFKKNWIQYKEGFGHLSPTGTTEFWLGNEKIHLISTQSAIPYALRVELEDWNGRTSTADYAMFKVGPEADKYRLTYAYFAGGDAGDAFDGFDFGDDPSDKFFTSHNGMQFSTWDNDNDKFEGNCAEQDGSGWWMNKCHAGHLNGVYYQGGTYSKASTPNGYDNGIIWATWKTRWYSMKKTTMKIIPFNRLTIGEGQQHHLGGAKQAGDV

[2] = target: T2, hisMRP-N (a.a. 48-721, the N-terminus of muramidase-released protein) (Streptococcus suis serotype 2 strain …, UniProt P32653 48-721, biotin (in the far-Western and on the BLI biosensors)); experiment: BLI
T2 chain: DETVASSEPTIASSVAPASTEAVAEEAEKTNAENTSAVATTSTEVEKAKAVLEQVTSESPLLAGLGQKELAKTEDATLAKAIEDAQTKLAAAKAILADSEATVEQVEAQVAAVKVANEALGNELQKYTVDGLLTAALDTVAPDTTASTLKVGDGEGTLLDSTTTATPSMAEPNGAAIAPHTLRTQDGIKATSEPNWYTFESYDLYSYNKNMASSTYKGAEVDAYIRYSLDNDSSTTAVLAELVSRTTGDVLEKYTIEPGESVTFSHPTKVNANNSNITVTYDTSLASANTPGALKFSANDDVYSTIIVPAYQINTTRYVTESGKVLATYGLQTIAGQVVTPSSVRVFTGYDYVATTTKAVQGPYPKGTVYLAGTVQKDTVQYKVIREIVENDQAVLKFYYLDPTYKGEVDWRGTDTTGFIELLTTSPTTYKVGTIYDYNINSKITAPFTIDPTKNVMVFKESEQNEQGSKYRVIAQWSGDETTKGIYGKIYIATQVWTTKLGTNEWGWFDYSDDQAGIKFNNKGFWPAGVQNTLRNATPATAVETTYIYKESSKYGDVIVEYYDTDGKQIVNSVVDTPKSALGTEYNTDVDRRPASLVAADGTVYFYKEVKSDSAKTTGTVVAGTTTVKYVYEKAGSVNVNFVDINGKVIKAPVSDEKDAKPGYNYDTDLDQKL

B1: hisMRP-N (a.a. 48-721, the N-terminus of muramidase-released protein) (domain or fragment)
chain: DETVASSEPTIASSVAPASTEAVAEEAEKTNAENTSAVATTSTEVEKAKAVLEQVTSESPLLAGLGQKELAKTEDATLAKAIEDAQTKLAAAKAILADSEATVEQVEAQVAAVKVANEALGNELQKYTVDGLLTAALDTVAPDTTASTLKVGDGEGTLLDSTTTATPSMAEPNGAAIAPHTLRTQDGIKATSEPNWYTFESYDLYSYNKNMASSTYKGAEVDAYIRYSLDNDSSTTAVLAELVSRTTGDVLEKYTIEPGESVTFSHPTKVNANNSNITVTYDTSLASANTPGALKFSANDDVYSTIIVPAYQINTTRYVTESGKVLATYGLQTIAGQVVTPSSVRVFTGYDYVATTTKAVQGPYPKGTVYLAGTVQKDTVQYKVIREIVENDQAVLKFYYLDPTYKGEVDWRGTDTTGFIELLTTSPTTYKVGTIYDYNINSKITAPFTIDPTKNVMVFKESEQNEQGSKYRVIAQWSGDETTKGIYGKIYIATQVWTTKLGTNEWGWFDYSDDQAGIKFNNKGFWPAGVQNTLRNATPATAVETTYIYKESSKYGDVIVEYYDTDGKQIVNSVVDTPKSALGTEYNTDVDRRPASLVAADGTVYFYKEVKSDSAKTTGTVVAGTTTVKYVYEKAGSVNVNFVDINGKVIKAPVSDEKDAKPGYNYDTDLDQKL
modifications: biotin (in the far-Western and on the BLI biosensors)
notes: Muramidase-released protein (MRP) of Streptococcus suis serotype 2 strain 05ZYH33, gene SSU05_0753, residues 48-721; also called hisMRP-N_(48-721); source: cloned into pET-28a, expressed, purified by Ni-chelating chromatography
- Kd [1]: 340 nM

B2: human fibrinogen (complex)
chain 1: ADSGEGDFLAEGGGVRGPRVVERHQSACKDSDWPFCSDEDWNYKCPSGCRMKGLIDEVNQDFTNRINKLKNSLFEYQKNNKDSHSLTTNIMEILRGDFSSANNRDNTYNRVSEDLRSRIEVLKRKVIEKVQHIQLLQKNVRAQLVDMKRLEVDIDIKIRSCRGSCSRALAREVDLKDYEDQQKQLEQVIAKDLLPSRDRQHLPLIKMKPVPDLVPGNFKSQLQKVPPEWKALTDMPQMRMELERPGGNEITRGGSTSYGTGSETESPRNPSSAGSWNSGSSGPGSTGNRNPGSSGTGGTATWKPGSSGPGSTGSWNSGSSGTGSTGNQNPGSPRPGSTGTWNPGSSERGSAGHWTSESSVSGSTGQWHSESGSFRPDSPGSGNARPNNPDWGTFEEVSGNVSPGTRREYHTEKLVTSKGDKELRTGKEKVTSGSTTTTRRSCSKTVTKTVIGPDGHKEVTKEVVTSEDGSDCPEAMDLGTLSGIGTLDGFRHRHPDEAAFFDTASTGKTFPGFFSPMLGEFVSETESRGSESGIFTNTKESSSHHPGIAEFPSRGKSSSYSKQFTSSTSYNRGDSTFESKSYKMADEAGSEADHEGTHSTKRGHAKSRPVRGIHTSPLGKPSLSP
chain 2: QGVNDNEEGFFSARGHRPLDKKREEAPSLRPAPPPISGGGYRARPAKAAATQKKVERKAPDAGGCLHADPDLGVLCPTGCQLQEALLQQERPIRNSVDELNNNVEAVSQTSSSSFQYMYLLKDLWQKRQKQVKDNENVVNEYSSELEKHQLYIDETVNSNIPTNLRVLRSILENLRSKIQKLESDVSAQMEYCRTPCTVSCNIPVVSGKECEEIIRKGGETSEMYLIQPDSSVKPYRVYCDMNTENGGWTVIQNRQDGSVDFGRKWDPYKQGFGNVATNTDGKNYCGLPGEYWLGNDKISQLTRMGPTELLIEMEDWKGDKVKAHYGGFTVQNEANKYQISVNKYRGTAGNALMDGASQLMGENRTMTIHNGMFFSTYDRDNDGWLTSDPRKQCSKEDGGGWWYNRCHAANPNGRYYWGGQYTWDMAKHGTDDGVVWMNWKGSWYSMRKMSMKIRPFFPQQ
chain 3: YVATRDNCCILDERFGSYCPTTCGIADFLSTYQTKVDKDLQSLEDILHQVENKTSEVKQLIKAIQLTYNPDESSKPNMIDAATLKSRKMLEEIMKYEASILTHDSSIRYLQEIYNSNNQKIVNLKEKVAQLEAQCQEPCKDTVQIHDITGKDCQDIANKGAKQSGLYFIKPLKANQQFLVYCEIDGSGNGWTVFQKRLDGSVDFKKNWIQYKEGFGHLSPTGTTEFWLGNEKIHLISTQSAIPYALRVELEDWNGRTSTADYAMFKVGPEADKYRLTYAYFAGGDAGDAFDGFDFGDDPSDKFFTSHNGMQFSTWDNDNDKFEGNCAEQDGSGWWMNKCHAGHLNGVYYQGGTYSKASTPNGYDNGIIWATWKTRWYSMKKTTMKIIPFNRLTIGEGQQHHLGGAKQAGDV
modifications: biotin on hFg (which chain is not told) in the ELISA with immobilised MRP
- koff [2]: 0.0989 s⁻¹
